Assay results as given in patent US20220204580A1 (AstraZeneca / MedImmune, published 2022).
Numbered stars: 1 amine (or outer) side, 2 acyl side, 3 side chain; on linkers, the order of the positions; unused ones are H or OH. Bridge positions count the residues as written; N and C are the ends. Square brackets hold non-standard residues; d marks the D form. Side chains are listed from the residue outwards. Ends that are not written are not given here. * marks the point of attachment. C18 diacid = O=C(O)CCCCCCCCCCCCCCCCC(=O)*; γGlu = O=C(O)[C@H](CCC(=O)[*:2])N[*:1]; Aib = CC(C)(N)C(=O)O

T1: human calcitonin receptor (human, UniProt P30988 25-474)
T1 sequence (looked up): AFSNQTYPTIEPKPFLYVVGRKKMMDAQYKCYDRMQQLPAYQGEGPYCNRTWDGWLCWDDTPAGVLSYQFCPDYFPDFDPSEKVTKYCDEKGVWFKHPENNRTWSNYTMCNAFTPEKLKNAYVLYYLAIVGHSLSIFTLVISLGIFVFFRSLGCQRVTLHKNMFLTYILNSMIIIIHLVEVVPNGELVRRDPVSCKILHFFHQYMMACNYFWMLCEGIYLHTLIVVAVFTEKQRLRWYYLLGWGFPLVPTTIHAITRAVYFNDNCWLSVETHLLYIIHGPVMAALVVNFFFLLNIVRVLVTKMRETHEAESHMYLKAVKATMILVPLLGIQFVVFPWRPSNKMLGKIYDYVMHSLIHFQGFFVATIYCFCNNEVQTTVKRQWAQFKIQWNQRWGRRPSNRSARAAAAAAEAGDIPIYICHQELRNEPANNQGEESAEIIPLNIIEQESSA

T2: human amylin receptor (calcitonin receptor co-expressed with receptor activity modifying protein, RAMP3) (human, UniProt P30988 25-474; O60896 24-148)
T2 sequence (looked up) 1: T1 sequence (looked up)
T2 sequence (looked up) 2: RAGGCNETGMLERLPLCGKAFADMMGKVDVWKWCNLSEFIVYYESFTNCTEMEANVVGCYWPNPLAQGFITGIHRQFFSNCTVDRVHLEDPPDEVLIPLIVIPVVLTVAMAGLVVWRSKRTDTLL

B1: Peptide 49 (SEQ ID NO: 49) (peptide)
peptide: K([γGlu-γGlu-C18 diacid])CNTATCATQRLANFLVHSS[Aib]NFGPILPPTEVGSNTY-NH2
modifications: disulfide 2-7; N-terminus assumed
SMILES: CC[C@H](C)[C@H](NC(=O)[C@@H]1CCCN1C(=O)CNC(=O)[C@H](Cc1ccccc1)NC(=O)[C@H](CC(N)=O)NC(=O)C(C)(C)NC(=O)[C@H](CO)NC(=O)[C@H](CO)NC(=O)[C@H](Cc1c[nH]cn1)NC(=O)[C@@H](NC(=O)[C@H](CC(C)C)NC(=O)[C@H](Cc1ccccc1)NC(=O)[C@H](CC(N)=O)NC(=O)[C@H](C)NC(=O)[C@H](CC(C)C)NC(=O)[C@H](CCCNC(=N)N)NC(=O)[C@H](CCC(N)=O)NC(=O)[C@@H](NC(=O)[C@H](C)NC(=O)[C@@H]1CSSC[C@H](NC(=O)[C@@H](N)CCCCNC(=O)CC[C@H](NC(=O)CC[C@H](NC(=O)CCCCCCCCCCCCCCCCC(=O)O)C(=O)O)C(=O)O)C(=O)N[C@@H](CC(N)=O)C(=O)N[C@@H]([C@@H](C)O)C(=O)N[C@@H](C)C(=O)N[C@@H]([C@@H](C)O)C(=O)N1)[C@@H](C)O)C(C)C)C(=O)N[C@@H](CC(C)C)C(=O)N1CCC[C@H]1C(=O)N1CCC[C@H]1C(=O)N[C@H](C(=O)N[C@@H](CCC(=O)O)C(=O)N[C@H](C(=O)NCC(=O)N[C@@H](CO)C(=O)N[C@@H](CC(N)=O)C(=O)N[C@H](C(=O)N[C@@H](Cc1ccc(O)cc1)C(N)=O)[C@@H](C)O)C(C)C)[C@@H](C)O
B2: Peptide 51 (SEQ ID NO: 51) (peptide)
peptide: K([γGlu-C18 diacid])KCNTATCATQRLANFLSHSS[Aib]NFGPILPPTHVGSNTY-NH2
modifications: disulfide 3-8; N-terminus assumed
SMILES: CC[C@H](C)[C@H](NC(=O)[C@@H]1CCCN1C(=O)CNC(=O)[C@H](Cc1ccccc1)NC(=O)[C@H](CC(N)=O)NC(=O)C(C)(C)NC(=O)[C@H](CO)NC(=O)[C@H](CO)NC(=O)[C@H](Cc1c[nH]cn1)NC(=O)[C@H](CO)NC(=O)[C@H](CC(C)C)NC(=O)[C@H](Cc1ccccc1)NC(=O)[C@H](CC(N)=O)NC(=O)[C@H](C)NC(=O)[C@H](CC(C)C)NC(=O)[C@H](CCCNC(=N)N)NC(=O)[C@H](CCC(N)=O)NC(=O)[C@@H](NC(=O)[C@H](C)NC(=O)[C@@H]1CSSC[C@H](NC(=O)[C@H](CCCCN)NC(=O)[C@@H](N)CCCCNC(=O)CC[C@H](NC(=O)CCCCCCCCCCCCCCCCC(=O)O)C(=O)O)C(=O)N[C@@H](CC(N)=O)C(=O)N[C@@H]([C@@H](C)O)C(=O)N[C@@H](C)C(=O)N[C@@H]([C@@H](C)O)C(=O)N1)[C@@H](C)O)C(=O)N[C@@H](CC(C)C)C(=O)N1CCC[C@H]1C(=O)N1CCC[C@H]1C(=O)N[C@H](C(=O)N[C@@H](Cc1c[nH]cn1)C(=O)N[C@H](C(=O)NCC(=O)N[C@@H](CO)C(=O)N[C@@H](CC(N)=O)C(=O)N[C@H](C(=O)N[C@@H](Cc1ccc(O)cc1)C(N)=O)[C@@H](C)O)C(C)C)[C@@H](C)O
B3: Peptide 47 (SEQ ID NO: 47) (peptide)
peptide: K([γGlu-C18 diacid])KCNTATCATQRLAHFLVHSS[Aib]NFGPILPPTNVGSETY-NH2
modifications: disulfide 3-8; N-terminus assumed
SMILES: CC[C@H](C)[C@H](NC(=O)[C@@H]1CCCN1C(=O)CNC(=O)[C@H](Cc1ccccc1)NC(=O)[C@H](CC(N)=O)NC(=O)C(C)(C)NC(=O)[C@H](CO)NC(=O)[C@H](CO)NC(=O)[C@H](Cc1c[nH]cn1)NC(=O)[C@@H](NC(=O)[C@H](CC(C)C)NC(=O)[C@H](Cc1ccccc1)NC(=O)[C@H](Cc1c[nH]cn1)NC(=O)[C@H](C)NC(=O)[C@H](CC(C)C)NC(=O)[C@H](CCCNC(=N)N)NC(=O)[C@H](CCC(N)=O)NC(=O)[C@@H](NC(=O)[C@H](C)NC(=O)[C@@H]1CSSC[C@H](NC(=O)[C@H](CCCCN)NC(=O)[C@@H](N)CCCCNC(=O)CC[C@H](NC(=O)CCCCCCCCCCCCCCCCC(=O)O)C(=O)O)C(=O)N[C@@H](CC(N)=O)C(=O)N[C@@H]([C@@H](C)O)C(=O)N[C@@H](C)C(=O)N[C@@H]([C@@H](C)O)C(=O)N1)[C@@H](C)O)C(C)C)C(=O)N[C@@H](CC(C)C)C(=O)N1CCC[C@H]1C(=O)N1CCC[C@H]1C(=O)N[C@H](C(=O)N[C@@H](CC(N)=O)C(=O)N[C@H](C(=O)NCC(=O)N[C@@H](CO)C(=O)N[C@@H](CCC(=O)O)C(=O)N[C@H](C(=O)N[C@@H](Cc1ccc(O)cc1)C(N)=O)[C@@H](C)O)C(C)C)[C@@H](C)O
B4: Peptide 50 (SEQ ID NO: 50) (peptide)
peptide: K([γGlu-γGlu-C18 diacid])CNTATCATQRLANFLRHSS[Aib]NFGPILPPTEVGSNTY-NH2
modifications: disulfide 2-7; N-terminus assumed
SMILES: CC[C@H](C)[C@H](NC(=O)[C@@H]1CCCN1C(=O)CNC(=O)[C@H](Cc1ccccc1)NC(=O)[C@H](CC(N)=O)NC(=O)C(C)(C)NC(=O)[C@H](CO)NC(=O)[C@H](CO)NC(=O)[C@H](Cc1c[nH]cn1)NC(=O)[C@H](CCCNC(=N)N)NC(=O)[C@H](CC(C)C)NC(=O)[C@H](Cc1ccccc1)NC(=O)[C@H](CC(N)=O)NC(=O)[C@H](C)NC(=O)[C@H](CC(C)C)NC(=O)[C@H](CCCNC(=N)N)NC(=O)[C@H](CCC(N)=O)NC(=O)[C@@H](NC(=O)[C@H](C)NC(=O)[C@@H]1CSSC[C@H](NC(=O)[C@@H](N)CCCCNC(=O)CC[C@H](NC(=O)CC[C@H](NC(=O)CCCCCCCCCCCCCCCCC(=O)O)C(=O)O)C(=O)O)C(=O)N[C@@H](CC(N)=O)C(=O)N[C@@H]([C@@H](C)O)C(=O)N[C@@H](C)C(=O)N[C@@H]([C@@H](C)O)C(=O)N1)[C@@H](C)O)C(=O)N[C@@H](CC(C)C)C(=O)N1CCC[C@H]1C(=O)N1CCC[C@H]1C(=O)N[C@H](C(=O)N[C@@H](CCC(=O)O)C(=O)N[C@H](C(=O)NCC(=O)N[C@@H](CO)C(=O)N[C@@H](CC(N)=O)C(=O)N[C@H](C(=O)N[C@@H](Cc1ccc(O)cc1)C(N)=O)[C@@H](C)O)C(C)C)[C@@H](C)O

biological target: T1, human calcitonin receptor; test: cell-based or functional assay

Binder	EC50 (cAMP production) [pM]
B1	4140
B2	1640
B3	468
B4	18900

biological target: T2, human amylin receptor (calcitonin …); test: cell-based or functional assay

Binder	EC50 (cAMP production) [pM]	Ratio (EC50 hCTR / EC50 hAMYR3)
B1	334	12
B2	126	13
B3	218	2
B4	349	54
